Data taken from patent US20220323495A1.

Key:
[1] = target: recombinant human EGFRvIII protein, native (human) (UniProt P00533); experiment: ELISA on coated native recombinant antigen; Exp 1
[2] = target: recombinant human wild-type EGFR protein, native (human) (UniProt P00533); experiment: ELISA on coated native recombinant antigen; Exp 1
[3] = target: recombinant human EGFRvIII protein, denatured (human) (UniProt P00533); experiment: ELISA on coated denatured recombinant antigen; Exp 1
[4] = target: recombinant human wild-type EGFR protein, denatured (human) (UniProt P00533); experiment: as above
[5] = target: recombinant human EGFRvIII protein, native (human) (UniProt P00533); experiment: ELISA on coated native recombinant antigen; Exp 2, mAb 1 µg/ml
[6] = target: recombinant human wild-type EGFR protein, native (human) (UniProt P00533); experiment: as above
[7] = target: recombinant human EGFRvIII protein, denatured (human) (UniProt P00533); experiment: ELISA on coated denatured recombinant antigen; Exp 2, mAb 1 µg/ml
[8] = target: recombinant human wild-type EGFR protein, denatured (human) (UniProt P00533); experiment: as above

| Substance | ELISA absorbance (405 nm) [1] [A405] | ELISA absorbance (405 nm) [2] [A405] | ELISA absorbance (405 nm) [3] [A405] | ELISA absorbance (405 nm) [4] [A405] | ELISA absorbance (405 nm) [5] [A405] | ELISA absorbance (405 nm) [6] [A405] | ELISA absorbance (405 nm) [7] [A405] | ELISA absorbance (405 nm) [8] [A405] |
| --- | --- | --- | --- | --- | --- | --- | --- | --- |
| 225 monoclonal antibody (ATCC HB-8508) | 1.08 | 1.2 | 0.001 | -0.01 | 1.5 | 1.32 | 0.004 | – |
| Neg ctrl mouse mAb (antibody) | – | – | – | – | -0.001 | – | – | 0 |
